According to US10434147B2, “Treatment type 2 diabetes mellitus patients” (Sanofi-Aventis Deutschland GmbH, priority 2015, dated 2019):
Marks after values point to notes of the source that are not given here.

Columns and labels:
[1] = test system: Patients with Type 2 Diabetes Insufficiently Controlled with Insulin Glargine with or without Metformin; assay: Treatment-emergent adverse events, 26-week study; format: in vivo, human; conditions: in vivo
Text: (§1) FIG. 6—Graphical study design. ^1 Insulin glargine should be injected subcutaneously once daily at dinner or breakfast time (according to patient's/investigators' preference). […] Meal used for insulin glulisine dosing should remain the same throughout the 26-week treatment period. ^4 Injection of insulin glulisine prior to breakfast, lunch and dinner.
(§2) Co-primary endpoints at 26 weeks were (1) non-inferiority (95% CI upper bound <0.4%) in HbA1c reduction with LIXI vs GLU-1 and (2) for LIXI vs GLU-3, either non-inferiority in HbA1c reduction (2a) OR superiority (one-sided α≤0.025) in body weight change (2b). FPG, PPG, IG dose, composite outcomes, AEs, and hypoglycemia were assessed.

[2] = test system: Patients with Type 2 Diabetes Insufficiently Controlled with Insulin Glargine with or without Metformin; set-up: species or system human; conditions: in vivo
Text: Clinical symptoms that are considered to result from a hypoglycemic episode are, e.g., increased sweating, nervousness, asthenia/weakness, tremor, dizziness, increased appetite, palpitations, headache, sleep disorder, confusion, seizures, unconsciousness, coma.
as §2

[3] = test system: Patients with Type 2 Diabetes Insufficiently Controlled with Insulin Glargine with or without Metformin; assay: HbA1c, randomized open-label active-controlled 3-arm 26-week study (GetGoal-Duo2); format: in vivo, human
Text: as §1, §2

[4] = Baseline (before IMP), mITT population
[5] = Week 26 (LOCF), mITT population

## Insulin Glulisine QD: insulin glulisine once daily, added to insulin glargine ± metformin (comparator arm)
[1]
  Patients with treatment emergent SAE: Penile infection: 0 n (%)
  Patients with treatment emergent SAE: Renal and urinary disorders (SOC): 0 n (%)
  Patients with treatment emergent SAE: Renal failure: 0 n (%)
  Patients with treatment emergent SAE: Renal failure acute: 0 n (%)
  Patients with treatment emergent SAE: Septic arthritis staphylococcal: 0 n (%)
  Patients with treatment emergent SAE: Skin and subcutaneous tissue disorders (SOC): 0 n (%)
  Patients with treatment emergent SAE: Skin ulcer haemorrhage: 0 n (%)
  Patients with treatment emergent SAE: Uterine cancer: 0 n (%)
  Patients with treatment emergent SAE: Vascular disorders (SOC): 0 n (%)
  TEAE leading to permanent treatment discontinuation: Abdominal pain: 0 n (%)
  TEAE leading to permanent treatment discontinuation: Any class: 2 (0.7%) n (%)
  TEAE leading to permanent treatment discontinuation: Ascites: 0 n (%)
  TEAE leading to permanent treatment discontinuation: Blood and lymphatic system disorders (SOC): 0 n (%)
  TEAE leading to permanent treatment discontinuation: Blood glucose decreased: 1 (0.3%) n (%)
  TEAE leading to permanent treatment discontinuation: Cardiac disorders (SOC): 0 n (%)
  TEAE leading to permanent treatment discontinuation: Cardiac failure chronic: 0 n (%)
  TEAE leading to permanent treatment discontinuation: Cough: 0 n (%)
  TEAE leading to permanent treatment discontinuation: Decreased appetite: 0 n (%)
  TEAE leading to permanent treatment discontinuation: Dehydration: 0 n (%)
  TEAE leading to permanent treatment discontinuation: Diabetic bullosis: 0 n (%)
  TEAE leading to permanent treatment discontinuation: Diarrhoea: 0 n (%)
  TEAE leading to permanent treatment discontinuation: Dyspepsia: 0 n (%)
  TEAE leading to permanent treatment discontinuation: Epigastric discomfort: 0 n (%)
  TEAE leading to permanent treatment discontinuation: Gastric ulcer haemorrhage: 0 n (%)
  TEAE leading to permanent treatment discontinuation: Gastrointestinal disorders (SOC): 0 n (%)
  TEAE leading to permanent treatment discontinuation: Headache: 0 n (%)
  TEAE leading to permanent treatment discontinuation: Hepatic mass: 0 n (%)
  TEAE leading to permanent treatment discontinuation: Hepatobiliary disorders (SOC): 0 n (%)
  TEAE leading to permanent treatment discontinuation: Hot flush: 0 n (%)
  TEAE leading to permanent treatment discontinuation: Hypoglycaemia: 0 n (%)
  TEAE leading to permanent treatment discontinuation: Immune system disorders (SOC): 0 n (%)
  TEAE leading to permanent treatment discontinuation: Invasive ductal breast carcinoma: 0 n (%)
  TEAE leading to permanent treatment discontinuation: Investigations (SOC): 1 (0.3%) n (%)
  TEAE leading to permanent treatment discontinuation: Lymphadenopathy: 0 n (%)
  TEAE leading to permanent treatment discontinuation: Metabolism and nutrition disorders (SOC): 0 n (%)
  TEAE leading to permanent treatment discontinuation: Metastases to liver: 0 n (%)
  TEAE leading to permanent treatment discontinuation: Metastases to peritoneum: 0 n (%)
  TEAE leading to permanent treatment discontinuation: Nasal congestion: 0 n (%)
  TEAE leading to permanent treatment discontinuation: Nausea: 0 n (%)
  TEAE leading to permanent treatment discontinuation: Neoplasms benign, malignant and unspecified (incl cysts and polyps) (SOC): 0 n (%)
  TEAE leading to permanent treatment discontinuation: Nervous system disorders (SOC): 1 (0.3%) n (%)
  TEAE leading to permanent treatment discontinuation: Pancreatic carcinoma metastatic: 0 n (%)
  TEAE leading to permanent treatment discontinuation: Renal and urinary disorders (SOC): 0 n (%)
  TEAE leading to permanent treatment discontinuation: Renal failure: 0 n (%)
  TEAE leading to permanent treatment discontinuation: Respiratory, thoracic and mediastinal disorders (SOC): 0 n (%)
  TEAE leading to permanent treatment discontinuation: Seasonal allergy: 0 n (%)
  TEAE leading to permanent treatment discontinuation: Skin and subcutaneous tissue disorders (SOC): 0 n (%)
  TEAE leading to permanent treatment discontinuation: Skin ulcer haemorrhage: 0 n (%)
  TEAE leading to permanent treatment discontinuation: Thrombosis: 0 n (%)
  TEAE leading to permanent treatment discontinuation: Tremor: 1 (0.3%) n (%)
  TEAE leading to permanent treatment discontinuation: Vascular disorders (SOC): 0 n (%)
  TEAE leading to permanent treatment discontinuation: Vomiting: 0 n (%)
  Total number of patients with any event adjudicated as pancreatitis by PSAC: 0 n (%)
[2]
  Any symptomatic hypoglycemia: Number of events: 395
  Any symptomatic hypoglycemia: Number of events per 100 patient years: 266.4 per 100 patient years
  Any symptomatic hypoglycemia: Number of patients with events per 100 patient years: 78.9 per 100 patient years
  Documented Symptomatic Hypoglycemia at Week 26, % pts: 37.5 (p = 0.144) % pts
  Documented Symptomatic Hypoglycemia at Week 26, No. of events: 384
  Documented Symptomatic Hypoglycemia at Week 26, No. of events/pt years: 2.6 events/pt years
  Severe Hypoglycemia, no. of pts with events: 2
[3]; ANCOVA, mITT population
  HbA1c change to Week 26, LS Mean difference (SE) of Lixisenatide vs. the labelled insulin glulisine arm: −0.05 (0.059) %
  HbA1c, Change from baseline to Week 26 (LOCF), LS Mean (SE): −0.58 (0.054) %
[3]; BL (end run-in), mITT
  HbA1c, BL (end run-in) mean ± SD: 7.7 ± 0.6%
[3]; [4]
  HbA1c, Baseline, Mean (SD): 7.72 (0.58) %
  HbA1c, Baseline, Median: 7.70%
[3]; Screening (start run-in), mITT
  HbA1c, Screening (start run-in) mean ± SD: 8.5 ± 0.7%
[3]; [5]
  HbA1c, Week 26 (LOCF), Mean (SD): 7.21 (0.79) %
  HbA1c, Week 26 (LOCF), Median: 7.10%
[3]; Week 26 (LOCF), mITT, Example 2 table
  HbA1c, Week 26 (LOCF) mean ± SD: 7.2 ± 0.8%
[3]; Week 26, mITT, Example 2 table
  HbA1c, LS mean treatment difference (lixisenatide vs the labelled arm), co-primary endpoint: −0.1^† %
  HbA1c, LS mean ± SE change from BL: −0.6 ± 0.1%
[3]; mITT population
  HbA1c, Change from baseline to Week 26 (LOCF), Mean (SD): −0.51 (0.80) %
  HbA1c, Change from baseline to Week 26 (LOCF), Median: −0.50%
